The source of these data is article PMC9046454.

Data set [1] deals with T1, nLuc-AFF (6*-50* duplication, 6-aa linker AAGASS) (UniProt P03069 226-281). Briefly: luminescence switching.
In data set [2] the target is T1, nLuc-AFF (6*-50* duplication, 6-aa …). The experiment in a line: fluorescence anisotropy. Background: Fluorescence polarisation rises when a labelled molecule tumbles more slowly, as on binding a larger partner.
Data set [3] has the same target. Briefly: luminescence ratio L460/L520 titration.
Data set [4] has the same target. The experiment in a line: luminescence ratio L460/L520 titration. This is another data set of the same source.

T1 sequence (P03069 226-281): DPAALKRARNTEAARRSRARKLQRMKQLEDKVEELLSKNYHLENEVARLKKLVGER

B1: NC duplex (non-consensus) (dsDNA)
DNA 1: GTTCCAGGTTAAGAAGTGCTCTCAGGGTGGCGCGGC
DNA 2: GCCGCGCCACCCTGAGAGCACTTCTTAACCTGGAAC
Take B1: in data set [1], the binding result is “no binding”.

B2: AP-1 duplex (dsDNA)
DNA 1: AGTGGAGATGACTCATCTCGTGC
DNA 2: GCACGAGATGAGTCATCTCCACT
As usually defined, the Kd is the free concentration of one partner at which half of the binding sites on the other are occupied at equilibrium, for simple one-to-one binding. Turning to B2, the Kd is 11.6 ± 2.5 nM in data set [2], 37 ± 11 nM in data set [3] and 14.3 ± 3.5 nM in data set [4].
